Test results from patent publication US10624968B2, “Compounds for treating cancer” (Bicycle Therapeutics Limited, priority 2017, dated 2020).
Where two headings read alike, the source gives them in different places. Starred links: 1 amine or outer side, 2 acyl side, 3 side chain; linkers in the order of their positions; H or OH if unused. Positions of bridges follow the written chain, without caps; N, C: chain ends. Non-standard residues stand in square brackets, D forms with d. Residues, ends and D or L forms follow the SMILES beside them. Chains are numbered I, II in the order given. ξ: configuration not given here. *: point of attachment. Dolaproine = CO[C@@H]([C@@H]1CCCN1)[C@@H](C)C(=O)O; Dil = CC[C@H](C)[C@H](NC)[C@@H](CC(=O)O)OC; TBMB = c1c(C[*:1])cc(C[*:3])cc1C[*:2]; X2 = O=C(CCCC(=O)[*:2])NCCC(=O)[*:1]; PABC = O=C(OCc1ccc(N[*:1])cc1)[*:2]; X1 = C[C@@H](N*)[C@@H](O)c1ccccc1; ξ1Nal = NC(Cc1cccc2ccccc12)C(=O)O; Cit = NC(=O)NCCC[C@H](N)C(=O)O; NMeV = CN[C@H](C(=O)O)C(C)C; ξY = NC(Cc1ccc(O)cc1)C(=O)O; ξTle = CC(C)(C)C(N)C(=O)O; ξF = NC(Cc1ccccc1)C(=O)O; ξE = NC(CCC(=O)O)C(=O)O; ξD = NC(CC(=O)O)C(=O)O; ξN = NC(=O)CC(N)C(=O)O; ξC = NC(CS)C(=O)O; ξA = CC(N)C(=O)O; Sar = CNCC(=O)O

Experiments:
[1] = test system: 11 tumor cell lines; test: 11 cancer cell line panel cytotoxicity, statements on the whole panel; settings: all tested cell lines; 72 hours
Excerpt: Details of the initial cell plating procedure are described in Table 3.
Data Details for Tables 5 and 6. Inhibition %=(Max−Sample value)/(Max−Min)*100.
The IC50 curves were generated by 4 Parameter Logistic Model—Sigmoidal Dose-Response Model as follows: Y=Bottom+(Top−Bottom)/(1+10^((log EC50-X)*HillSlope)).

[2] = Plasma stability (LC-MS/MS assay), human plasma; assay type: in vitro ADME; settings: pH 7.4 at 37° C.
Description: (§1) I-1a plasma stability studies were conducted in human and mouse plasma.
(§2) In vitro plasma stability assay measures the extent of degradation of compounds in plasma.
(§3) Peptides or BDCs are incubated at 37° C. in plasma (mouse or human) at low micromolar concentrations for several hours. The stability is quantitatively measured by LC-MS/MS.
(§4) Add 8 μL of the 160 μM DMSO stock of peptide or BDC and add 8 μL of 160 μM DMSO stock of 06-34-18-N182 as internal standard to 304 μL of plasma (152 μL*2) for a final concentration of 4 μM (5% DMSO).
(§5) Incubate at 37° C. in 100% humidity.
(§6) Pipette out 40 μL for 7 timepoints: time 0, 1 h, 2 h, 4 h, 6 h, 8 h, 24 h into a 1.5 mL Eppendorf. Store at −80° C. immediately. (total volume of samples?×40=280 μL).
(§7) Add to the sample the extraction solvent. The extraction solvent contains 1 part of water, 3 parts of methanol, and 3 parts of acetonitrile.
(§8) To the time course samples add 120 μL of extraction solvent, mix thoroughly with pipette and gently vortex.
Centrifuge for 40 minutes at 14000 rpm at 4° C. […]
It is recommend to follow one transition for the peptide of BDCs to study, and one transition for the internal standard 06-34-18-N182 at the same time. The most relevant Selected Ion Reaction (SIR) and Multiple Reaction Monitoring (MRM) transitions were determined for each peptide or BDC. […]

[3] = Plasma stability (LC-MS/MS assay), mouse plasma, with and without AEBSF; assay type: in vitro ADME
Description: as §1, §2, §3, §4, §5, §6, §7, §8
Centrifuge for 40 minutes at 14000 rpm at 4° C.
Transfer the supernatant to the LC-MS vials and run the experiment immediately afterwards.
It is recommend to follow one transition for the peptide of BDCs to study, and one transition for the internal standard 06-34-18-N182 at the same time. The most relevant Selected Ion Reaction (SIR) and Multiple Reaction Monitoring (MRM) transitions were determined for each peptide or BDC.
The analysis of the data has been performed using “QuanLynks” and “Sigmaplot” software.
For the studies depicted in FIGS. 1-3, the following conditions were used.
Column: Waters ACQUITY CSH Phenyl-Hexyl 1.7 μm 2.1×50 mm
Mobile Phase: […] ammonium bicarbonate in water; B=5 mM ammonium bicarbonate 10% water in acetonitrile.
Gradient: 5 to 60% B in 4 minutes at 0.6 mL/min flow.
To test the hypothesis that plasma instability in mouse was due to Ces1c, I-1a was incubated in mouse plasma both in the presence and absence of AEBSF,
Additionally, formation of the MMAE metabolite in mouse plasma (release of the toxin) was monitored both in the presence and absence of AEBSF.

[4] = Body weight in HT1080 xenograft model (Example 7); assay type: in vivo; settings: any of the doses tested (1, 3, and 10 mg/kg)
Description: I-1a was evaluated in a HT1080 xenograft model at 1, 3, and 10 mg/kg. Additionally the ability of the binding peptide (the Bicycle+Spacer of I-1a, structure shown in Example 6) to abrogate activity when dosed at a 100-fold excess immediately before treatment with I-1a in the HT1080 xenograft model was assessed.

[5] = Tolerability (body weight) in LU-01-0486 NSCLC PDX model; assay type: in vivo, mouse
Description: All the procedures related to animal handling, care and the treatment in the study were performed following the guidance of the Association for Assessment and Accreditation of Laboratory Animal Care (AAALAC). At the time of routine monitoring, the animals were daily checked for any effects of tumor growth and treatments on normal behavior such as mobility, food and water consumption (by looking only), body weight gain/loss (body weights were measured twice weekly), eye/hair matting and any other abnormal effect as stated in the protocol. Death and observed clinical signs were recorded on the basis of the numbers of animals within each subset.

SMILES: CC[C@H](C)[C@@H]([C@@H](CC(=O)N1CCC[C@H]1[C@H](OC)[C@@H](C)C(=O)N[C@H](C)[C@@H](O)c1ccccc1)OC)N(C)C(=O)[C@@H](NC(=O)[C@H](C(C)C)N(C)C(=O)OCc1ccc(NC(=O)[C@H](CCCNC(N)=O)NC(=O)[C@@H](NC(=O)CCCC(=O)NCCC(=O)N(C)CC(=O)N(C)CC(=O)N(C)CC(=O)N(C)CC(=O)N(C)CC(=O)N(C)CC(=O)N(C)CC(=O)N(C)CC(=O)N(C)CC(=O)N(C)CC(=O)NC(C)C(=O)NC2CSCc3cc4cc(c3)CSCC(NC(=O)C(C)NC(=O)C(Cc3cccc5ccccc35)NC(=O)C(CCC(=O)O)NC(=O)C(CC(N)=O)NC(=O)C(C)NC2=O)C(=O)NC(CCC(=O)O)C(=O)NC(CC(=O)O)C(=O)NC(Cc2ccccc2)C(=O)NC(Cc2ccc(O)cc2)C(=O)NC(CC(=O)O)C(=O)NC(C(C)(C)C)C(=O)NC(C(N)=O)CSC4)C(C)C)cc1)C(C)C (some centres unmarked) [Compound I-1a] (I: [Sar][Sar][Sar][Sar][Sar][Sar][Sar][Sar][Sar][Sar][ξA][ξC][ξA][ξN][ξE][ξ1Nal][ξA][ξC][ξE][ξD][ξF][ξY][ξD][ξTle][ξC]-NH2 / II: V[Cit][PABC][NMeV]V[Dil][Dolaproine]-X1; linker I:12-I:18-I:25 via TBMB; linker I:N-II:N via X2)
- cytotoxic activity over the cell line panel (in words) [1]: works well on all cell lines except HCT-15
- half-life at 1 μM [2]: > 24 h
- remaining at 24 h, 1 μM ([2]; read-out: % remained after 24 hours incubation): 96%
- half-life at 4 μM ([3]; mouse plasma without AEBSF, pH 7.4 at 37° C.): 24 h
- remaining at 24 h, 4 μM ([3]; mouse plasma without AEBSF, pH 7.4 at 37° C., read-out: % remained after 24 hours incubation): 50%
- formation of the MMAE metabolite (release of the toxin) ([3]; mouse plasma, in the absence of AEBSF): I-1a degradation tracks with the appearance of free MMAE
- formation of the MMAE metabolite (release of the toxin) ([3]; mouse plasma, in the presence of AEBSF): lack of formation of free MMAE
- half-life at 1 μM ([3]; mouse plasma, 1 μM, pH 7.4 at 37° C.): 6.4 h
- remaining at 24 h, 1 μM ([3]; mouse plasma, 1 μM, pH 7.4 at 37° C., read-out: % remained after 24 hours incubation): 57%
- half-life at 4 μM ([3]; with AEBSF (concentration not stated), mouse plasma +AEBSF, pH 7.4 at 37° C.): > 24 h
- remaining at 24 h, 4 μM ([3]; with AEBSF (concentration not stated), mouse plasma +AEBSF, pH 7.4 at 37° C., read-out: % remained after 24 hours incubation): 100%
- effect on body weight (in words) [4]: No dose-related effects on body weight
- effect on body weight (in words) ([5]; 1 mg/kg): no significant effect on body weight
- effect on body weight (in words) ([5]; 3 mg/kg): without significant effect on body weight
